No end group written: not given here.
What was measured:
[1] = molecular target: rat spinal cord membrane receptor; assay: competition binding, rat spinal cord membranes
[2] = molecular target: rat spinal cord membrane receptor; assay: competition binding, rat spinal cord membranes (SEM 0; may be a floor value)
[3] = molecular target: rat neuropeptide FF receptor (NPFF1) (rat) (UniProt Q9EP86); assay: competition vs [125I]D-Tyr-NPFF, COS-7 membranes (SEM 0; may be a floor value)
Chain of rat neuropeptide FF receptor (NPFF1) (rat) (Q9EP86 whole entry): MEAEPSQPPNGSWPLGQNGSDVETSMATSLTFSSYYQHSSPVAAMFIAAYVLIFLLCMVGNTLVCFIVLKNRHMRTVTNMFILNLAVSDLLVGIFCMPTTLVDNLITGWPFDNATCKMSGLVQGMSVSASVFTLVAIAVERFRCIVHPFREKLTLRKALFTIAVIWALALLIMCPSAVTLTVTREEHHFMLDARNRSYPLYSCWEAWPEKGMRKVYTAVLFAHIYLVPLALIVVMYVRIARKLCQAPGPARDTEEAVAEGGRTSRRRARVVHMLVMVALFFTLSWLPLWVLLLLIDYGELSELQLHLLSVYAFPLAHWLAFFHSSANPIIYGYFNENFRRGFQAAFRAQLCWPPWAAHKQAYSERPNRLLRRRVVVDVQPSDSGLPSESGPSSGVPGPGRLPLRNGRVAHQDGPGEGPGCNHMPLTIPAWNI

Molecule	pKi [1]	pKi [2]	pKi [3]
rat NPFF (FLFQPQRF-NH2) (peptide)	9.05		
Met5-Arg6-Phe7-Enk-OH (peptide)		5	5
Tyr-MIF-1 (peptide)			5
H-KHQYLRF-NH2 [AF-2 (H-Lys-His-Gln-Tyr-Leu-Arg-Phe-NH2)]	7.96		
PDVDHVFLRF-NH2 [Schisto(FLRFNH2) (Pro-Asp-Val-Asp-His-Val-Phe-Leu-Arg-Phe-amide)]	6.39		
H-KNQFIRF-NH2 [AF-1 (FMRF-like peptide H2N-Lys-Asn-Gln-Phe-Ile-Arg-Phe-NH2)]	7.56		
AGEGLSSPFWSLAAPQRF-NH2 [rat A-18-F-amide (…-NH2)]	9		
